± gives the uncertainty stated by the source.
B1: Tudor domain-containing protein 3, residues 554 to 611; numbered along this chain, Q9H7E2 (parent)
chain: KMWKPGDECFALYWEDNKFYRAEVEALHSSGMTAVVKFIDYGNYEEVLLSNIKPIQTE

Variants of: B1
Assay: abundance fitness (aPCA) (normalised: wild type 0, dead -1); higher = more abundant; growth selection in yeast, the domain comes from the species named
Details: Homo sapiens

**Q.** Which abundance fitness does the source give for E58Q here?
**A.** -0.252 ± 0.29

**Q.** For E58L, which abundance fitness is on record?
**A.** -0.183 ± 0.12

**Q.** For E58K, which abundance fitness is on record?
**A.** -0.024 ± 0.2

**Q.** Which abundance fitness does the source give for E58N here?
**A.** 0.049 ± 0.29

**Q.** For N51D, which abundance fitness is on record?
**A.** -0.097 ± 0.1

**Q.** With N51M as the variant, how does the abundance fitness read?
**A.** -0.364 ± 0.075

**Q.** With N51L as the variant, how does the abundance fitness read?
**A.** -0.727 ± 0.071

**Q.** With N51A as the variant, how does the abundance fitness read?
**A.** -0.308 ± 0.065

**Q.** With S30C as the variant, how does the abundance fitness read?
**A.** -0.109 ± 0.089

**Q.** Which abundance fitness does the source give for S30E here?
**A.** -0.143 ± 0.081

**Q.** With S30F as the variant, how does the abundance fitness read?
**A.** -0.435 ± 0.097

**Q.** Which abundance fitness does the source give for L27T here?
**A.** -0.301 ± 0.12

**Q.** With L27H as the variant, how does the abundance fitness read?
**A.** -0.675 ± 0.18

**Q.** For L27P, which abundance fitness is on record?
**A.** -0.973 ± 0.17

**Q.** For L27S, which abundance fitness is on record?
**A.** -0.749 ± 0.1

**Q.** With L27E as the variant, how does the abundance fitness read?
**A.** -0.913 ± 0.11

**Q.** With L27M as the variant, how does the abundance fitness read?
**A.** -0.181 ± 0.11

**Q.** Which abundance fitness does the source give for Q56C here?
**A.** 0.008 ± 0.082

**Q.** With Q56E as the variant, how does the abundance fitness read?
**A.** 0.113 ± 0.081

**Q.** Which abundance fitness does the source give for Q56D here?
**A.** -0.061 ± 0.093

**Q.** With Q56P as the variant, how does the abundance fitness read?
**A.** 0.015 ± 0.074

**Q.** With Q56R as the variant, how does the abundance fitness read?
**A.** -0.078 ± 0.054

**Q.** Which abundance fitness does the source give for Q56M here?
**A.** -0.037 ± 0.097

**Q.** With Q56K as the variant, how does the abundance fitness read?
**A.** -0.065 ± 0.096

**Q.** For Q56W, which abundance fitness is on record?
**A.** -0.189 ± 0.077

**Q.** With A26H as the variant, how does the abundance fitness read?
**A.** -0.031 ± 0.21

**Q.** With A26V as the variant, how does the abundance fitness read?
**A.** -0.128 ± 0.11

**Q.** For A26M, which abundance fitness is on record?
**A.** -0.065 ± 0.14

**Q.** For A26C, which abundance fitness is on record?
**A.** -0.063 ± 0.15

**Q.** With A26G as the variant, how does the abundance fitness read?
**A.** -0.068 ± 0.086

**Q.** Which abundance fitness does the source give for A26T here?
**A.** 0.109 ± 0.17

**Q.** For L48A, which abundance fitness is on record?
**A.** -0.049 ± 0.07

**Q.** With L48N as the variant, how does the abundance fitness read?
**A.** -0.104 ± 0.11

**Q.** Which abundance fitness does the source give for L48V here?
**A.** -0.354 ± 0.062

**Q.** Which abundance fitness does the source give for L48W here?
**A.** -0.356 ± 0.071

**Q.** Which abundance fitness does the source give for L48M here?
**A.** -0.113 ± 0.069

**Q.** With L48D as the variant, how does the abundance fitness read?
**A.** -0.177 ± 0.098

**Q.** With L48R as the variant, how does the abundance fitness read?
**A.** -0.197 ± 0.053

**Q.** For I52T, which abundance fitness is on record?
**A.** -0.686 ± 0.14

**Q.** Which abundance fitness does the source give for I52L here?
**A.** 0.032 ± 0.067

**Q.** With I52S as the variant, how does the abundance fitness read?
**A.** -0.853 ± 0.089

**Q.** With I52Q as the variant, how does the abundance fitness read?
**A.** -1.01 ± 0.19

**Q.** Which abundance fitness does the source give for I52F here?
**A.** -0.906 ± 0.25

**Q.** Which abundance fitness does the source give for I52K here?
**A.** -0.974 ± 0.43

**Q.** Which abundance fitness does the source give for I52E here?
**A.** -0.911 ± 0.12

**Q.** Which abundance fitness does the source give for I52R here?
**A.** -0.938 ± 0.079

**Q.** With E46G as the variant, how does the abundance fitness read?
**A.** -0.88 ± 0.095

**Q.** With E46M as the variant, how does the abundance fitness read?
**A.** -0.342 ± 0.12

**Q.** For E46H, which abundance fitness is on record?
**A.** -0.308 ± 0.12

**Q.** With E46W as the variant, how does the abundance fitness read?
**A.** -0.259 ± 0.095

**Q.** With D7Y as the variant, how does the abundance fitness read?
**A.** -0.712 ± 0.12

**Q.** For D7G, which abundance fitness is on record?
**A.** -0.899 ± 0.093

**Q.** With I55V as the variant, how does the abundance fitness read?
**A.** -0.039 ± 0.063

**Q.** Which abundance fitness does the source give for I55W here?
**A.** -0.372 ± 0.078

**Q.** For I55F, which abundance fitness is on record?
**A.** -0.1 ± 0.13

**Q.** Which abundance fitness does the source give for I55G here?
**A.** -0.351 ± 0.051

**Q.** With I55P as the variant, how does the abundance fitness read?
**A.** -0.084 ± 0.11

**Q.** Which abundance fitness does the source give for W14M here?
**A.** 0.066 ± 0.1

**Q.** Which abundance fitness does the source give for W14T here?
**A.** 0.016 ± 0.075

**Q.** With W14K as the variant, how does the abundance fitness read?
**A.** 0.166 ± 0.1

**Q.** Which abundance fitness does the source give for W14A here?
**A.** 0.173 ± 0.065

**Q.** With W14H as the variant, how does the abundance fitness read?
**A.** 0.043 ± 0.15

**Q.** Which abundance fitness does the source give for W14S here?
**A.** 0.134 ± 0.075

**Q.** Which abundance fitness does the source give for E23C here?
**A.** -0.034 ± 0.079

**Q.** For E23R, which abundance fitness is on record?
**A.** 0.032 ± 0.057

**Q.** With E23L as the variant, how does the abundance fitness read?
**A.** -0.225 ± 0.062

**Q.** For E23Q, which abundance fitness is on record?
**A.** -0.103 ± 0.11

**Q.** Which abundance fitness does the source give for E23A here?
**A.** -0.257 ± 0.071

**Q.** Which abundance fitness does the source give for E45H here?
**A.** -0.333 ± 0.13

**Q.** With E45R as the variant, how does the abundance fitness read?
**A.** -0.107 ± 0.053

**Q.** Which abundance fitness does the source give for E45F here?
**A.** -0.768 ± 0.17

**Q.** For E45P, which abundance fitness is on record?
**A.** -1.02 ± 0.19

**Q.** Which abundance fitness does the source give for E45M here?
**A.** -0.586 ± 0.15

**Q.** With E45Q as the variant, how does the abundance fitness read?
**A.** -0.13 ± 0.096

**Q.** Which abundance fitness does the source give for E45K here?
**A.** -0.43 ± 0.1

**Q.** With E45Y as the variant, how does the abundance fitness read?
**A.** -0.38 ± 0.15

**Q.** Which abundance fitness does the source give for G6W here?
**A.** -0.545 ± 0.093

**Q.** With G6N as the variant, how does the abundance fitness read?
**A.** -0.798 ± 0.12

**Q.** For G6T, which abundance fitness is on record?
**A.** -0.919 ± 0.13

**Q.** Which abundance fitness does the source give for G6C here?
**A.** -0.86 ± 0.093

**Q.** Which abundance fitness does the source give for G6S here?
**A.** -0.776 ± 0.08

**Q.** For G6R, which abundance fitness is on record?
**A.** -0.431 ± 0.058

**Q.** For M32L, which abundance fitness is on record?
**A.** -0.045 ± 0.057

**Q.** Which abundance fitness does the source give for M32E here?
**A.** 0.009 ± 0.083
